Reference: US20110045489A1, “Polymerases for Incorporating Modified Nucleotides” (NEW ENGLAND BIOLABS, INC., priority 2008, published 2011)
Residue numbers refer to the chain shown, from its start. Names may count otherwise. Values belong to the molecule of their own block, whether it stands above or below them.

System: modified nucleotide
Assay: Screen of DNA polymerase mutants for modified nucleotide incorporation
Assay type: biochemical
From the text: In order to determine the extent of 3′-modified nucleotide incorporation by archaeon DNA polymerases, the titration assay described by Gardner and Jack (2002) was used. In this assay, the efficiency of incorporation of chain terminators was judged by the size of the reaction products in a polymerization reaction. As the efficiency of chain-terminator incorporation increased, the average reaction product size decreased because polymerization was more often halted by terminator addition. By comparing the amount of terminator required to give the same spectrum of reaction products, the relative efficiency of incorporation of the test compounds with the different polymerases was determined.
A complex library of 9° N DNA polymerase mutants was screened for enhanced incorporation of 3′-azido-ddCTP. Several classes of 9° N DNA polymerase mutants were identified with enhanced terminator incorporation. 9° N exo-L408S/Y409A/P410V (Therminator III™, NEB, Inc., Ipswich, Mass.) was purified and characterized in more detail. 9° N DNA polymerase single mutants P410V, L408S, and Y409A and double mutants L408S/P410V, L408S/Y409A, and Y409A/P410V were also purified for comparison. Purification and characterization of DNA polymerase mutants was as described in Gardner and Jack, Nucleic Acids Res. 27:2545-2553 (1999).
A library of 9° N DNA polymerase mutants was constructed by PCR amplification of the polymerase genes using gene-specific primers or codon optimization and gene synthesis Czar et al. Trends Biotechnol 27(2): 63-72 (2009)). The ability to incorporate 3′-modified nucleotide terminators was evaluated by the titration assay for chain terminator incorporation efficiency as described by Gardner and Jack (2002).
Furthermore, the same assay was used to measure 3′-amino-ddCTP incorporation by 9° N exo-L408S/Y409A/P410V (FIG. 3) and to measure rates of incorporation (FIG. 4). Examples of mutants that increased modified nucleotide incorporation by at least two-fold were: […]

- increase of modified nucleotide incorporation: at least two-fold
B1: 9° N D141A/E143A/Y409A/S411T: 9° N DNA polymerase mutant (protein, UniProt Q56366 1-775, looked up, variant D141A E143A Y409A S411T)
DNA polymerase: MILDTDYITENGKPVIRVFKKENGEFKIEYDRTFEPYFYALLKDDSAIEDVKKVTAKRHGTVVKVKRAEKVQKKFLGRPIEVWKLYFNHPQDVPAIRDRIRAHPAVVDIYEYDIPFAKRYLIDKGLIPMEGDEELTMLAFAIATLYHEGEEFGTGPILMISYADGSEARVITWKKIDLPYVDVVSTEKEMIKRFLRVVREKDPDVLITYNGDNFDFAYLKKRCEELGIKFTLGRDGSEPKIQRMGDRFAVEVKGRIHFDLYPVIRRTINLPTYTLEAVYEAVFGKPKEKVYAEEIAQAWESGEGLERVARYSMEDAKVTYELGREFFPMEAQLSRLIGQSLWDVSRSSTGNLVEWFLLRKAYKRNELAPNKPDERELARRRGGYAGGYVKEPERGLWDNIVYLDFRSLAPTIIITHNVSPDTLNREGCKEYDVAPEVGHKFCKDFPGFIPSLLGDLLEERQKIKRKMKATVDPLEKKLLDYRQRAIKILANSFYGYYGYAKARWYCKECAESVTAWGREYIEMVIRELEEKFGFKVLYADTDGLHATIPGADAETVKKKAKEFLKYINPKLPGLLELEYEGFYVRGFFVTKKKYAVIDEEGKITTRGLEIVRRDWSEIAKETQARVLEAILKHGDVEEAVRIVKEVTEKLSKYEVPPEKLVIHEQITRDLRDYKATGPHVAVAKRLAARGVKIRPGTVISYIVLKGSGRIGDRAIPADEFDPTKHRYDAEYYIENQVLPAVERILKAFGYRKEDLRYQKTKQVGLGAWLKVKGKK

- increase of modified nucleotide incorporation: at least two-fold
B2: 9° N D141A/E143A/Y409A/P410R/S411T: 9° N DNA polymerase mutant (protein, UniProt Q56366 1-775, looked up, variant D141A E143A Y409A P410R S411T)
DNA polymerase: B1 DNA polymerase with P410R

- increase of modified nucleotide incorporation: at least two-fold
B3: 9° N D141A/E143A/N491L/Y494S: 9° N DNA polymerase mutant (protein, UniProt Q56366 1-775, looked up, variant D141A E143A N491L Y494S)
DNA polymerase: B1 DNA polymerase with A409Y, T411S, N491L, Y494S

The remaining lines, values behind:

B4: 9° N D141A/E143A/L408S/Y409A/P410V/S411T: 9° N DNA polymerase mutant (protein, UniProt Q56366 1-775, looked up, variant D141A E143A L408S Y409A P410V S411T)
DNA polymerase: B1 DNA polymerase with L408S, P410V
- increase of modified nucleotide incorporation: at least two-fold

B5: 9° N D141A/E143A/L408P/Y409A/P410V/S411T: 9° N DNA polymerase mutant (protein, UniProt Q56366 1-775, looked up, variant D141A E143A L408P Y409A P410V S411T)
DNA polymerase: B1 DNA polymerase with L408P, P410V
- increase of modified nucleotide incorporation: at least two-fold
